Numbering of substitutions follows the chain as printed.

Data on 8 molecules can be found in US20210388081A1 (Memorial Sloan Kettering, published 2021).

The target of experiment [1] is T1, FcRL3, overexpressed on 3T3 cells (UniProt Q96P31 18-734, limits assumed).
T1 construct: whole, on cells
T1 sequence (looked up): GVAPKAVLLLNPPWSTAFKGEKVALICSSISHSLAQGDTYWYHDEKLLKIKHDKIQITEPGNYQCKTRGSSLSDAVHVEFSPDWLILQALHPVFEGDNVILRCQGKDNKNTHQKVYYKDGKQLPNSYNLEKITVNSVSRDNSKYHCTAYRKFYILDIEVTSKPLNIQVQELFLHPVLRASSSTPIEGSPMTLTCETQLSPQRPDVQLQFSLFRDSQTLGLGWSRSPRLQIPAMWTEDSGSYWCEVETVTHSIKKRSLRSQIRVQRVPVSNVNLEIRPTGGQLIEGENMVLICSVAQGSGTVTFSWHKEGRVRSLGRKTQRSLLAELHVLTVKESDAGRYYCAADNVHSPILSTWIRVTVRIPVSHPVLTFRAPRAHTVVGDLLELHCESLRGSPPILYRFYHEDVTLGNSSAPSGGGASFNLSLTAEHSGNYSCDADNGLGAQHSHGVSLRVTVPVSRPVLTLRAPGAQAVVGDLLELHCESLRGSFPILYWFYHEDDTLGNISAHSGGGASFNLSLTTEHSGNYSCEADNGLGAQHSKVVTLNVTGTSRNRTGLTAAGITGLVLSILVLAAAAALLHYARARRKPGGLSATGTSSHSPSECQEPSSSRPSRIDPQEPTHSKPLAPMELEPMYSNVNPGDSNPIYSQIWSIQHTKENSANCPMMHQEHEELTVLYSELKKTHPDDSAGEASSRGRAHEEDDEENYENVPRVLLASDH
Description: phage clone on 3T3-FcRL3 cells.

For another experiment, the target named is SLAMF9 protein (UniProt Q96A28 19-236, limits assumed). Put plainly: phage clone on SLAMF9 protein.
SLAMF9 protein, sequence (Q96A28 19-236 limits assumed): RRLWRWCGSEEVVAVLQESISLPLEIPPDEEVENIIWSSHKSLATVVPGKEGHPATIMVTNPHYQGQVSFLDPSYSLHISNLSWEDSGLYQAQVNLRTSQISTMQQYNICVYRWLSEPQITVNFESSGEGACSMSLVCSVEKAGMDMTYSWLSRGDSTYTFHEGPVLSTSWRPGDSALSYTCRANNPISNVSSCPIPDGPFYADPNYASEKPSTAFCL
Experiment [2] concerns the target T2, FcRL2, overexpressed on 3T3 cells (UniProt Q96LA5 20-508, limits assumed).
T2 construct: whole, on cells
T2 sequence (looked up): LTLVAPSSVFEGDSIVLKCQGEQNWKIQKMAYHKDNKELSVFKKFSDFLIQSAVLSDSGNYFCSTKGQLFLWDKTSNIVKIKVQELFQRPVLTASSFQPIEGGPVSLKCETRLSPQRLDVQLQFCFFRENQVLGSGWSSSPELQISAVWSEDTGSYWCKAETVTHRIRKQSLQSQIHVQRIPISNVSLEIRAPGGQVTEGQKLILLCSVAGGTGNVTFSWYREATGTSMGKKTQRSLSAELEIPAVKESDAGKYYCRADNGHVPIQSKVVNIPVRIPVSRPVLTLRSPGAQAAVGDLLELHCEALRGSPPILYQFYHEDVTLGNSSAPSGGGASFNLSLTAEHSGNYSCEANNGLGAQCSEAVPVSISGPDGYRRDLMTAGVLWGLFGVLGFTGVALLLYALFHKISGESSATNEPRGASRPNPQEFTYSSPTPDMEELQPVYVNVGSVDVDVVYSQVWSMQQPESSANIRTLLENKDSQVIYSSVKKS
Description: phage clone on 3T3-FcRL2 cells.

Experiment [3] addresses T3, Fc Receptor-like 5 (FcRL5), full length, overexpressed on 3T3 or Raji cells (human, UniProt Q96RD9 16-977).
T3 construct: also called 3T3-FcRL5
T3 sequence: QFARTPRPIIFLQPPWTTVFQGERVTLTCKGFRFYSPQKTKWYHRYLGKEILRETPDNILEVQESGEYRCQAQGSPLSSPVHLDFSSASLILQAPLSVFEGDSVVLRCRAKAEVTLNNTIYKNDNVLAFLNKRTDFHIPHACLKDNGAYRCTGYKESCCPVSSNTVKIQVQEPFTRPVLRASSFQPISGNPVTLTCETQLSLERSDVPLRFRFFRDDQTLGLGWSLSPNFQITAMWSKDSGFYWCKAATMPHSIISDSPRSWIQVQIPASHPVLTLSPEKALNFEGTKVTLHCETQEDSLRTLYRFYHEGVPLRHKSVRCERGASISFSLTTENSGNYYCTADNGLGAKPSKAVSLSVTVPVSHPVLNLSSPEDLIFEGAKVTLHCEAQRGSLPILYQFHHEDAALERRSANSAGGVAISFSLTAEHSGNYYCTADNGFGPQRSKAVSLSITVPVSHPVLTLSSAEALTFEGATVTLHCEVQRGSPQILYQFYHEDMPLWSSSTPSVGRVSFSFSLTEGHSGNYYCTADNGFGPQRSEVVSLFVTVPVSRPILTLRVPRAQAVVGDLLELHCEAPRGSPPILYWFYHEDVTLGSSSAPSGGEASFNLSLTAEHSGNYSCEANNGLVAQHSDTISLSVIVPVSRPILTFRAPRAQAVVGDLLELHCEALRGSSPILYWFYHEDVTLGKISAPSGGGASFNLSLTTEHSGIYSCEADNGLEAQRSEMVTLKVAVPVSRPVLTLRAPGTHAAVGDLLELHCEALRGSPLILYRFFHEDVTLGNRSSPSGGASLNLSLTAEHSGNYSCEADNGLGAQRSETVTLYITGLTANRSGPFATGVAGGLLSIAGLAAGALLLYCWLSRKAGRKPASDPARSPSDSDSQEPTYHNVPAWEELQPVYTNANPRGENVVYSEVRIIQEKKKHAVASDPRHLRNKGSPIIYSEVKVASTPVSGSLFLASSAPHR
Description: phage clone screening on cells. A digest of the protocol:
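Cell-surface binding was read by flow cytometry using anti-M13 coat protein mAb and PE-labelled anti-mouse Ig. Selected scFv phage were screened on FcRL5-overexpressing 3T3 cells, with 3T3 lines bearing FcRL1, 2, 3, 4 or 6 as negative controls.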

In experiment [4] the target is T4, FcRL6, overexpressed on 3T3 cells (UniProt Q6DN72 20-434, limits assumed).
T4 construct: whole, on cells
T4 sequence (looked up): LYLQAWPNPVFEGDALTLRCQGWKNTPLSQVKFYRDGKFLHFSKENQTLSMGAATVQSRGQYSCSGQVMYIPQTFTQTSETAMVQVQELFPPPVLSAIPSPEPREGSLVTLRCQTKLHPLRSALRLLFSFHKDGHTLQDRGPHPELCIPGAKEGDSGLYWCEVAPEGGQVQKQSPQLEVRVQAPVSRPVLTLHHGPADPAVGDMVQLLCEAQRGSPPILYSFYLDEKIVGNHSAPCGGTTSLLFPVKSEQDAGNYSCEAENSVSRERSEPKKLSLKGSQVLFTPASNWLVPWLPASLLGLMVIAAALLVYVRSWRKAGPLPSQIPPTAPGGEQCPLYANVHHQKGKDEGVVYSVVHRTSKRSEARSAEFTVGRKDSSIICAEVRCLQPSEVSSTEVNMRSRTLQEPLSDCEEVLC
Put plainly: phage clone on 3T3-FcRL6 cells.

B1: ET200-097 (scFv)
scFv: LPVLTQPPSVSVSPGQTAIITCSGDKLGEKYVSWYQQKPGQSPVLVIDQDTRRPSGIPERFSGSNSGTTATLTISGTQAMDEADYYCQAWDRGVVFGGGTKLTVLGSRGGGGSGGGGSGGGGSLEMAEVQLVESGGDLVQPGRSLRLSCAASGFTFNDYAMHWVRQAPGKGLEWVSGISWSGNNIGYADSVKGRFTISRDNAKNSLYLQMNSLRAEDTALYYCAKDSIRYGITWGGFDYWGQGTLVTVSSTSGQAGQHHHHHHGAYPYDVPDYAS
notes: screened as phage clone; entry is VL-linker-VH-His tag-HA tag
For B1, the binding result is “no binding” in experiment [1]; “no binding” with SLAMF9 protein; “no binding” in experiment [2]; “binds” in experiment [3]; “no binding” in experiment [4].

B2: ET200-081 (scFv)
scFv: QSALTQPASVSGSPGQSITISCTGTSSDIGGYNYVSWYQQHPGKAPKLMIYDVSNRPSGVSNRFSGSKSGNTASLTISGLQAEDEADYYCISYTRTWNPYVFGSGTKVTVLGSRGGGGSGGGGSGGGGSLEMAEVQLVQSGGGVVQPGGSLRLSCAASGFTFDDYAMHWVRQAPGKGLEWVSLISGDGGSTYYADSVKGRFTISRDNSKNSLYLQMNSLRTEDTALYYCAKDRAAAGYYYYGMDVWGQGTTVTVSSTSGQAGQHHHHHHGAYPYDVPDYAS
notes: as for B1
Turning to B2, the binding result in experiment [1] is reported as “no binding”; with SLAMF9 protein, “no binding”; in experiment [2], “no binding”; in experiment [3] it was “binds”; in experiment [4], “no binding”.

B3: ET200-079 (scFv)
scFv: SYELTQPPSASGTPGQRVTISCSGSSSNIGSNYVYWYQQLPGTAPKLFIYRNNQRPSGVPDRFSGSKSGTSASLAISGLRSEDEADYYCAAWDDSLSGYLFGTGTKVTVLGSRGGGGSGGGGSGGGGSLEMAEVQLVESGGGLVQPGRSLRLSCAASGFTFDDYAMHWVRQAPGKGLEWVSGISWNSGSIGYADSVKGRFTISRDNAKNSLYLQMNSLRAEDTALYYCANGDSNYYYGMDVWGQGTTVTVSSTSGQAGQHHHHHHGAYPYDVPDYAS
notes: as for B1
For the molecule B3, the binding result is on record as “no binding” in experiment [1]; “no binding” in the experiment with SLAMF9 protein; “no binding” in experiment [2]; “binds” in experiment [3]; “no binding” in experiment [4].

B4: ET200-099 (scFv)
scFv: QSVLTQPPSASGTPGQRVTISCSGSSSNIGSNTVNWYQQLPGTAPKLLIYSNDQRPSGVPDRFSGSKSGTSASLAISGLQSEDEADYYCASWDDSLNGRYVFGTGTKVTVLGSRGGGGSGGGGSGGGGSLEMAQVQLVQSGAEVRKPGASVKVSCKTSGYTFSWYAIHWVRQAPGQRLEWMGWINAGNGNTKYSQKFQGRVSLTRDTSASTAYMELSSLRSDDTAVYYCARPDNYGSGGDVFDIWGQGTMVTVSSTSGQAGQHHHHHHGAYPYDVPDYAS
notes: as for B1
Regarding B4, the binding result in experiment [1] is “no binding”; with SLAMF9 protein it was “no binding”; in experiment [2], “no binding”; in experiment [3], “binds”; in experiment [4] it was “no binding”.

B5: ET200-098 (scFv)
scFv: QPVLTQPPSVSKGLRQTATLTCTGNSNNVGNLGVAWLQQHQGHPPKLLSYRNNNRPSGISERLSASRSGNTASLTITGLQPEDEADYYCSAWDSSLSAWVFGGGTKLTVLGSRGGGGSGGGGSGGGGSLEMAEVQLVESGGVVVQPGGSLRLSCAASGFTFDDYAMHWVRQAPGKGLEWVSLINWDGGSTYYADSVKGRFTISRDNSKNSLYLQMNSLRAEDTALYYCAKGMGLRAFDYWGQGTLVTVSSTSGQAGQHHHHHHGAYPYDVPDYAS
notes: as for B1
Consider B5, for which the binding result in experiment [1] is recorded as “no binding”; in the experiment with SLAMF9 protein, “no binding”; in experiment [2], “no binding”; in experiment [3], “binds”; in experiment [4] it was “no binding”.

B6: ET200-100 (scFv)
scFv: NFMLTQPHSVSESPGKTVTISCTRSSGSIASNFVQWYQQRPGSAPTPMIYEDNNRPPGVPDRFSASVDSSSNSASLTISGLKTEDEADYYCQSYDTSNVVFGGGTKLTVLGSRGGGGSGGGGSGGGGSLEMAEVQLVESGGGLVQPGGSLRLSCAASGFTFSSYEMNWVRQAPGKGLEWVSYISSSGSTIYYADSVKGRFTISRDNAKNSLYLQMNSLRAEDTAVYYCARWDYGMDVWGQGTTVTVSSTSGQAGQHHHHHHGAYPYDVPDYAS
notes: as for B1
Turning to B6, the binding result in experiment [1] is “no binding”; with SLAMF9 protein it was “no binding”; in experiment [2], “no binding”; in experiment [3], “binds”; in experiment [4], “no binding”.

B7: ET200-104 (scFv)
scFv: B6 scFv with F33Y, P47T, M48V, N54Q, P57S, A65G, V67I, T96S, L107V
notes: as for B1
Consider B7, for which the binding result in experiment [1] is “no binding”; with SLAMF9 protein, “no binding”; in experiment [2], “no binding”; in experiment [3] it was “binds”; in experiment [4] it was “no binding”.

B8: ET200-006 (scFv)
scFv: SYVLTQPPSVSVAPGKTARITCGGNNIGSKSVHWYQQKPGQAPVVVIHYDSDRPSGIPERFSGSNSGNTATLTISRVEAGDEADYYCQVWDSSSDHPYVFGTGTKVTVLGSRGGGGSGGGGSGGGGSLEMAEVQLVQSGAEVKKPGASVKVSCKASGYTFTTYGISWVRQAPGQGLEWMGWINTYNGHTNYAQKLQGRATMTADTSTNTAYMELRSLRSDDTAVYYCARVIYGSGDYWGQGTLVTVSSTSGQAGQHHHHHHGAYPYDVPDYAS
notes: as for B1
For the molecule B8, the binding result in experiment [1] is given as “no binding”; with SLAMF9 protein, “no binding”; in experiment [2], “no binding”; in experiment [3], “binds”; in experiment [4] it was “no binding”.
